{"source": "a protein production outcome set (Wang et al. 2014)"}
{"assay": "label from the status in PepcDB records"}
{"sequence": "MTGIWEENTGKQSGDHSTPLRWRCFKHEKNRPPSLVPGQQSGIILACFRRGPPPRCLVKRLPYPGSALVLRRYIMSTSPVTLMVARRVADGRYQDLIAWLREGEQLATDFPGYLGSGVLAPPPNDDEFQIIFRFADESTLHTWEHSASRTAWLARGSDLFAHPSEHRVSGIDGWFGAAGHRPPRWKQAVAIWLAFFPVSLLFNFVLGPLLGDLSLLPRVFVSTLALTPLMVYFFIPLSTRLLANWLNSTPARPLPATPSTQNP", "protein production": "failed"}
{"sequence": "MTGKAKPKKHTAKEIQAKIDAALTNRGGGKAGIADRTGKEKGGHAKYECPHCKITAPGLKTMQIHHESKHPNIIYEESKLVNLHAVLAPVAESKPKPGIRGSLKK", "protein production": "failed"}
{"sequence": "MTGPLAAARSVAATKSMTAPTVDERPDIKKGLAGVVVDTTAISKVVPQTNSLTYRGYPVQDLAARCSFEQVAFLLWRGELPTDAELALFSQRERASRRVDRSMLSLLAKLPDNCHPMDVVRTAISYLGAEDPDEDDAAANRAKAMRMMAVLPTIVAIDMRRRRGLPPIAPHSGLGYAQNFLHMCFGEVPETAVVSAFEQSMILYAEHGFNASTFAARVVTSTQSDIYSAVTGAIGALKGRLHGGANEAVMHDMIEIGDPANAREWLRAKLARKEKIMGFGHRVYRHGDSRVPTMKRALERVGTVRDGQRWLDIYQVLAAEMASATGILPNLDFPTGPAYYLMGFDIASFTPIFVMSRITGWTAHIMEQATANALIRPLSAYCGHEQRVLPGTF", "protein production": "not failed"}
{"sequence": "MTGQVLDGRYRLVERLGSGGMGEVWRGHDERLGRTVAIKLIHPGASVDDEAVALFRREAQVTARLAGHPNIVILYDYGTDGDTVYTVMELVTGCSLSALLRERGRLPVELAVRWGAHVCAGLAAAHAVGVVHRDIKPSNLMVVDADAPDGGTVKLVDFGIAGFHEAALHQRTLPPTGEPFGTPLYVSPEQIQMLPVGAFSDLYSFGAVLFHMLTGQPPFHAAEPMPVLRMHLTEPPPNPAELRPDVPAELAELVLMLLAKDPGQRPDNALWVRDRLLSLSGTSPPASAASPTESASREAQMRRLEQSWVEAERLAAAGQAAAAAQRIGALLGELAAIYGADHPATLEARRRHASLTSRAGDPERAAALFDTLVADLDRIYGHAHPETYAARHHLAAATEQAGRRAEAAVLRSELVDALTAQYGPQAARLLHPRLFYAVDLAEAGDFTGAEKLLRDLAAALEQQLGAHTPALQIVHHYLDAAAAFASETAGAEPPHPNRFRESTRLDGRPPPHPLRQRLTRWLRSTTEL", "protein production": "failed"}
{"sequence": "MTGTPCPDFTLPGTAGADFQLSSSRKPLVIYFYPKDNTPGCTNESMAFRDLHPEFAALGAEIVGISRDSLKSHQNFKAKLELPFELLSDSEETACSLFGVIKMKNMYGKQVRGIERSTFVIDASGKVSREWRGVKVPGHAEEVLAYVKTLK", "protein production": "failed"}
{"sequence": "MTGVIAGPSVLGAVSSGSIESLAELGVILLLFTIGLEMSAERFGEFRRTALIGGTLQICLTVSVVTILTMVLGLSPGKAVFLGFLISLSSTAVVLKVLQDFHETEAPHGQASLAILIFQDVAAVPMILTVPFLGGVVGDPSSALGTLLTAGAVLPWEPCIGKVLVPRLFDVVAATGSREIFLLTVILVCASVTWLTGEVGLSPALGAFLVGSIVANTEYAHRAQGTILPFQEVFLSFFFVSLGMLLDLRFFLDHIYLIVLAVIGVLMIKVVMNSLVGFVMGYSARVVVLLGLVLAQIGEFSFILSETGLRYGLMDRLTFQAFLSVSLITMAITPFLISLSPRISERIVRADLHPRIKNGRVYRRPSVDLRDHLIIIGMGITGRRLADTCEDHGIPYIGLDVNPEAVRRARDEGLNVYYGDGTHLAVLRHFNVPEAAVMVIAIADYRSTVHAIHEARALNEGMKIIARIRGFENTEMLYTAGADVVVSEKREATRRISDEIFSCYSGVCELEE", "protein production": "failed"}
{"sequence": "MTHCADNGAPLAARQSAARARMSLPVDSPDAATAADSLPPAPAPRPRAPASLVVLATLAVGYTLWAAQTIILPIMLAAFFALIGNPILRGLRKLYIPRFLGALLILCLGLAGTVTLAAQLAGPAAEWVQQAPRQMRQIARDVRDLTKPVMQANQAAENFARAAGGEGQRGVQIVRTQMDDPYKALVRTPKLAASVLAVVLLTFFFMVYGESLQRHAIALLPNRQQQRFTTEIMLDIEREVSRYVLTISVINTLVGLVFAGILYVLQIPLPEAILWGTVVALLNFAPYVGPLIGVMLMLLMGFVEFRTTLSSLLPAILYLALHTIEGQVVTPIVLGRRMAISPLMLILALMLFGWLWGMVGLLLAVPLLVCIKMVLSRVDGMQRWARLLE", "protein production": "failed"}
{"sequence": "MTHEAMSPGEWKAKGGGLTIRYGFHASPFGLALVMITDRGLAGCAFADPGDERACFEDMAGRWPNADYVEDREATAPYAARIFEPAMWTADKPLRVVLEHHHHHH", "protein production": "not failed"}
{"sequence": "MTHERGYDLASQVLNICNVHHKKLFCHITYRHLLVLSSDDNGCVILKKVITIADDFLKDEFLDLIAQHAHSLSMHDLGISLIQHVLELDFTKKTTQDDKRLHELMAEFDEVLSTSVTADVDKLHKLASKLMLDSDLFFEFVITRRGSLMIQIILGKSEEVDQVILAGVKQRFIDVTTNFYGYRIMIQTIKVFKKRGDLKVYDQILRLIGVHALYLTKDPDMGNKTFQHAINLHHQDCTTFIACGLQSHYIELSFLKHGSKIVEMLIDDRISMVPLVLLMMEIVKCDEDTLVRLATDEYGNNILKKFLALAKEHKEDFFGDLVDKLNPLLDSLRGTLGENIVAIIDSETEMVKDRIVSQGNN", "protein production": "failed"}
{"sequence": "MTHPFEPFFDKDSKILILGSFPSIKSRQDGFYYQHPRNRFWPILETLFNAKLENITEQQAFLRKKHIALWDVLQSCKIKNSDDKTISYAKANDLNLILSQTKIQAIFTTGQSAYRFFVKFHPRLEAIALPSTSPANLNFSFEQLLQNYEIIKKFTKLEHHHHHH", "protein production": "failed"}
{"sequence": "MTHPLYIFDLDETLINGDCAMIWNEFLVDKGIVTTPDFLEEDKRLMTLYSRGLMDMEDYLIFAMSPLKNIPTDQVEILIEECVNERILPLLFPEAKILIHQLKADNVDMIVISASVSFLVKIVAKNIGIKHAIGIDLKEKNGCYTRHILGVPSYREGKVSRLTEWLNGGDKTYSALHFYTDSINDLPLCLYADHTYLVNPCEQLAVYSKKKNWPILAWGSQ", "protein production": "failed"}
{"sequence": "MTHRPMLNKIKLFFIVQIILSFLVLAGTLISILVIPSHLPDYFIWAIAFSFWVFQCGFSTIFAFRYRISKSSLSTIKLSFILIGSIQILITLATNLFGIFDLPIFNTLIIKNFQFLILSLIFIVMIYKLIKDMLKYRVLKDYIIRDSFFTFIPFAFIIYKNSKYFISSIYFLDDSVYSLALLNINSLRIFLEGFLIILIFVKTIYLRGNKKSSFLLLIYFYVSNLNCYIVSYFNSKLLFSHYLYQGIGIYFICPILLMLSIYHSITEQEKAPDQVLFDDSYMNINNSWISITIGIFPVSFSAIDIISSSIASGDFNGIESLVIILLVMILLVCRDVILRKDNLRLIASVKRANEIDFLTNMYSRNYFLKKLETINTDYALFFIDIKSFKDINNIFGHVVGDKVLVEVANKFKELKLLLGKNVFYCRYSGNEFALISKLDQVDLILKFFRDLENIKIQHNSDLIHINFNIGYSLNDSNINLDLLIQETDYALMRAKKLKGPNNSILMYDDNLKTDLEHMNILKKDFKNDLLTGKFHLVFQPKVCVKTLKIVGFETLLRWKHDKLGEISPSKFVPIAENLGEISSLDLYVFKKSCEFQRCLIDKGIKLKCSVNLSLNTLKSYEKINEILNIYKEYKIPKHLITAEILENVSLNNNAKTISYINLLRENGICISIDDFGTGYSSLSQISNLYFDELKIPREFVIDARTPSKLAVIEAISILAKKLKVTSVIEGVENYEDFKLFSSLGFDIVQGYYFSKPLTKSEIIDYIKVNINNKIS", "protein production": "failed"}
{"sequence": "MTHSQQSMVDTFRASLFDNQDITVADQQIQALPYSTMYLRLNEGQRIFVVLGYIEQEQSKWLSQDNAMLVTHNGRLLKTVKLNNNLLEVTNSGQDPLRNALAIKDGSRWTRDILWSEDNHFRSATLSSTFSFAGLETLNIAGRNVLCNVWQEEVTSTRPEKQWQNTFWVDSATGQVRQSRQMLGAGVIPVEMTFLKPAPLEHHHHHH", "protein production": "not failed"}
{"sequence": "MTHTRRALSTVGKGLAALRHLLPLLLCLLVLAGCAKAPYTGRSQFIMVSPQQEMALGQQESRKILSKEPVKTGTDEAQRVETVGRRIAAAARRGDFRWEFHLIGKDVANAFCLPGGKVFVYEGIFKYADTDAELATVMAHEVGHAIARHGAERMSRAMMVQMGHDAAAIALGVAGGSPAAVQAFSQAYGTGANVGLMLPFGREQEYEADRIGLMLMAQAGYDPRAALDFWRKMSSAPGKRPPEFLSTHPTGQHRIAELQARMGDALRVYRPPSGK", "protein production": "failed"}
